Results from patent US20150315275A1 (AstraZeneca / MedImmune, published 2015).
Where “and” joins values, the source holds several entries; their conditions need not be identical. Identical values can stand only once.

Experiments:
[1] = biological target: T1, mouse B7-H4ECD mIgG2a Fc fusion protein (mouse, UniProt Q7TSP5 25-257, limits assumed); assay: ELISA, mouse B7-H4ECD mIgG2a Fc fusion coated
T1 construct: also called mouse B7-H4-mIg fusion protein; Mouse B7-H4-mouse-Ig Fusion Protein; not shown: mouse IgG2a Fc
T1 sequence: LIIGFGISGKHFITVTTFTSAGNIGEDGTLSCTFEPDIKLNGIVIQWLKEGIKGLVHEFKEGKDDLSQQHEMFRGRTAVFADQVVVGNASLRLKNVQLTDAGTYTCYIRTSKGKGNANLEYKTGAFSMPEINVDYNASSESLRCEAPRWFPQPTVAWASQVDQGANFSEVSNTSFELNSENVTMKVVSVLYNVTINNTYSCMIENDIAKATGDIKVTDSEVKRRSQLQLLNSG
Experimental: 100 μg/ml mouse B7-H4ECD mIgG2a Fc fusion protein diluted in PBS was immobilized on flat bottom 96 well plate (Costar 9017) overnight at 4° C. Plates were washed twice with PBS+0.1% PS-20 and blocked with 200 μl/well PBS 10% FBS at RT for 1 hr. 100 μl chimeric 6H3 and 14 selected 6H3 humanized variants diluted in PBS 10% FBS were added to each well and incubated at RT for 1 hr. Plates were washed three times and 100 μl 1 μg/ml anti-human Ig HRP (Sigma) was added to each well and incubated at RT for 1 hr. Plates were washed six times and 100 μl TMB substrate (SurModics) was added to each well for 5-15 mins 100 μl stop solution (0.1M Sulfuric acid) was added to each well. Plates were read at Absorbance 450 nm by PerkinElmer EnVision 2104 Multilabel Reader.

B7-H4-Ig fusion protein [2] = biological target: T2, B7-H4-Ig fusion protein (human); assay: competition ELISA on B7-H4-Ig-coated plate, Plate 1; competitor biotinylated mouse 6H3 (5 ng/ml)
T2 construct: also called human B7-H4 Ig
Experimental: (§1) A 12-point, 3-fold dilution series of 14 humanized 6H3 antibody variants was prepared ranging from 100 μg/ml to 0.5 ng/ml. Dilutions were prepared in assay diluent containing biotinylated mouse anti-human B7-H4 6H3 (SEQ ID NOS:3 and 5 for light chain variable region and heavy chain variable region respectively) at 5 ng/ml. Antibodies were allowed to bind to B7-H4-Ig-coated assay plates (200 ng/well) for 1 hour at room temperature and detected with streptavidin HRP.

[3] = biological target: T3, human B7-H4 expressed on cells (human, UniProt Q7Z7D3 25-282); assay: flow cytometry on HEK293.hB7-H4 transfectants, one-site specific binding fit
T3 construct: the cell line is named under assay or readout; also called full length human B7-H4 on HEK293 cells; 293T.hB7-H4
T3 sequence: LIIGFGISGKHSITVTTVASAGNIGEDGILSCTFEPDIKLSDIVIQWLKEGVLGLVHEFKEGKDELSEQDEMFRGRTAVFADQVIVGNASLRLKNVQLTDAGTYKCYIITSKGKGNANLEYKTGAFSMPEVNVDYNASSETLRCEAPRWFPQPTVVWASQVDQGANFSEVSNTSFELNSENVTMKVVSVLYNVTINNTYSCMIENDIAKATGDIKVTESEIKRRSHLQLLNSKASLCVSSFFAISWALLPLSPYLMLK
Experimental: For each staining, 0.2 million HEK293.hB7-H4 transfectants were resuspended in 100 μl flow cytometry buffer (PBS+2% FBS). A serial dilution of chimeric 6H3 and 14 humanized variants of 0, 0.1 ng, 0.3 ng, 1 ng, 3 ng, 10 ng, 30 ng, 100 ng, 300 ng, 1 μg, 3 μg and 10 μg were added to the cells and incubated at 4° C. for 30 min. Cells were then washed twice with 2 ml flow cytometry buffer, and resuspended in 100 μl flow cytometry buffer. 1 μl anti-hIg PE secondary antibody (Biolegend) was added and incubated with the cells for 15 mins Samples were then washed and resuspended in 100 μl flow cytometry buffer. Flow Cytometry data was acquired using BD Canto (BD Biosciences) in plate format and analyzed by FlowJo software. Staining data (MFI) was then input into Prism 5 software to generate binding curve. Curve-fit using one-site specific binding algorithm calculates individual KD for each variant.

[4] = biological target: T4, B7-H4ECD his-tagged protein (Sinobiologics) (human, UniProt Q7Z7D3 25-259); assay: ELISA, B7-H4ECD his-tagged protein coated
T4 construct: Bought protein; Result paragraph calls the target human B7-H4; also called B7-H4 extracellular domain; not shown: his tag
T4 sequence: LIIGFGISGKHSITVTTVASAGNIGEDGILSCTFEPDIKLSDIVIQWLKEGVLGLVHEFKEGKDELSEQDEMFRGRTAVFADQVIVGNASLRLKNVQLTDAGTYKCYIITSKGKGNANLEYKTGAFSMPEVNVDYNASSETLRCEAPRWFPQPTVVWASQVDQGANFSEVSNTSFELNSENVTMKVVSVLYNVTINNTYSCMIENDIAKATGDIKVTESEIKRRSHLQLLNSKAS
Experimental: 100 μl 1 μg/ml B7-H4ECD his-tagged protein (Sinobiologics) diluted in PBS was immobilized on flat bottom 96 well plate (Costar 9017) overnight at 4° C. Plates were washed twice with PBS+0.1% PS-20 and blocked with 200 μl/well PBS 10% FBS at RT for 1 hr. 100 μl chimeric 6H3 and 14 selected 6H3 humanized variants diluted in PBS 10% FBS were added to each well and incubated at RT for 1 hr. Plates were washed three times and 100 μl 1 μg/ml anti-human Ig HRP (Sigma) was added to each well and incubated at RT for 1 hr. Plates were washed six times and 100 μl TMB substrate (SurModics) was added to each well for 5-15 mins 100 μl stop solution (0.1M Sulfuric acid) was added to each well. Plates were read at Absorbance 450 nm by PerkinElmer EnVision 2104 Multilabel Reader.

[5] = biological target: T3, human B7-H4 expressed on cells; assay: saturation binding, flow cytometry on 624mel/B7-H4 cells, biotinylated mAb, azide-treated cells; unit not given
Experimental: A saturation binding experiment was carried out on 624mel/B7-H4 cells using the chimeric 6H3 mAb and humanized variants of 6H3. Briefly, 50,000 cells were pretreated with 0.1% azide on ice for 30 minutes to inhibit B7-H4 internalization then stained for 30 minutes with biotinylated anti-B7-H4 mAbs. The mAbs were diluted in a 12-point, 3-fold dilution series ranging from 200 μg/ml down to 1 ng/ml. Cell were stained with streptavidin PE for 10 minutes, washed, fixed and analyzed by flow cytometry.
FIGS. 35A-35B are binding curves for the raw (FIG. 35A) and background subtracted data (FIG. 35B). […] The subtracted values were used to determine the Kd and Bmax. The antibodies appear to fall into two groups based on Kd values (Table 10).

B7-H4-Ig fusion protein [6] = biological target: T2, B7-H4-Ig fusion protein; assay: competition ELISA on B7-H4-Ig-coated plate, Plate 2; competitor biotinylated mouse 6H3 (5 ng/ml)
Experimental: as §1

B1: humanized 6H3 variant 4 (antibody, V domains shown)
VH: EVQLVQSGAEMKKPGASVKVSCKASGYTFTDYYMNWVRQAPGQSLEWIGVINPYNGDTTYNQKFQGRVTVTVDKSATTAYMELSSLRSEDTAVYYCARYPESTYWGQGTLVTVSS
VL: DVVMTQSPLSLPVTLGQPASISCRSSQSLVHINGNTYLHWYQQRPGQSPRVLIYKVSNRFSGVPDRFSGSGSGTDFTLKISRVEAEDVGVYFCSQSTHVPLTFGGGTKVEIK
notes: also called V4; Variant 4 (antibody)
EC50 [1]: 0.08 nM
EC50 (B7-H4-Ig fusion protein [2]): 2.95 µg/mL and 19.7 nM
Bmax(MFI) [3]: 580 MFI
Kd [3]: 5.2 nM
EC50 [4]: 1.16 nM

B2: humanized 6H3 variant 1 (antibody, V domains shown)
VH: QVQLVQSGAEVKKPGASVKVSCKASGYTFTDYYMHWVRQAPGQGLEWMGIINPYNGDTSYAQKFQGRVTMTRDTSTSTVYMELSSLRSEDTAVYYCARYPESTYWGQGTLVTVSS
VL: DVVMTQSPLSLPVTLGQPASISCRSSQSLVHINGNTYLHWYQQRPGQSPRVLIYKVSNRFSGVPDRFSGSGSGTDFTLKISRVEAEDVGVYFCSQSTHVPLTFGGGTKVEIK
notes: also called V1; H1A L1B
EC50 [1]: 0.1 nM

B3: humanized 6H3 variant 8 (antibody, V domains shown)
VH: QVQLVQSGAEVKKPGASVKVSCKASGYTFTDYYMHWVRQAPGQGLEWMGIINPYNGDTSYAQKFQGRVTMTRDTSTSTVYMELSSLRSEDTAVYYCARYPESTYWGQGTLVTVSS
VL: DIVMTQTPLSLPVTLGQPASISCRSSQSLVHINGNTYLHWYQQRPGQSPRVLIYKVSNRFSGVPDRFSGSGSGTDFTLKISRVEAEDVGVYFCSQSTHVPLTFGQGTKVEIK
notes: also called V8; H1A L2B
EC50 [1]: 0.06 nM

B4: humanized 6H3 variant 5 (antibody, V domains shown)
VH: EVQLVQSGAEVKKPGASVKVSCKASGYTFTDYYMNWVRQAPGQGLEWIGIINPYNGDTSYNQKFKGRVTLTVDKSTSTAYMELSSLRSEDTAVYYCARYPESTYWGQGTLVTVSS
VL: DVVMTQSPLSLPVTLGQPASISCRSSQSLVHINGNTYLHWYLQRPGQSPKVLIYKVSNRFSGVPDRFSGSGSGTDFTLKISRVEAEDVGVYFCSQSTHVPLTFGGGTKVEIK
notes: also called V5; Variant 5 (antibody)
EC50 [1]: 0.05 nM
EC50 (B7-H4-Ig fusion protein [2]): 3.62 µg/mL and 24.2 nM
Bmax(MFI) [3]: 646 MFI
Kd [3]: 4.2 nM
EC50 [4]: 0.95 nM

B5: humanized 6H3 variant 2 (antibody, V domains shown)
VH: EVQLVQSGAEVKKPGASVKVSCKASGYTFTDYYMNWVRQAPGQGLEWIGIINPYNGDTSYNQKFKGRVTLTVDKSTSTAYMELSSLRSEDTAVYYCARYPESTYWGQGTLVTVSS
VL: DVVMTQSPLSLPVTLGQPASISCRSSQSLVHINGNTYLHWYQQRPGQSPRVLIYKVSNRFSGVPDRFSGSGSGTDFTLKISRVEAEDVGVYFCSQSTHVPLTFGGGTKVEIK
notes: also called V2; 6H3 V2
EC50 [1]: 0.08 nM
EC50 (B7-H4-Ig fusion protein [2]): 2.46 µg/mL and 16.4 nM
Bmax [5]: 4650
Bmax(MFI) [3]: 603 MFI
Kd [3]: 2.4 nM
EC50 [4]: 0.51 nM

B6: humanized 6H3 variant 10 (antibody, V domains shown)
VH: EVQLVQSGAEMKKPGASVKVSCKASGYTFTDYYMNWVRQAPGQSLEWMGVINPYNGDTTYNQKFQGRVTVAVDKSATTAYMELSSLRSEDTAVYYCARYPESTYWGQGTLVTVSS
VL: DIVMTQTPLSLPVTLGQPASISCRSSQSLVHINGNTYLHWYQQRPGQSPRVLIYKVSNRFSGVPDRFSGSGSGTDFTLKISRVEAEDVGVYFCSQSTHVPLTFGQGTKVEIK
notes: also called V10; H2B L2B
EC50 [1]: 0.13 nM
Bmax(MFI) [3]: 662 MFI
Kd [3]: 5.5 nM
EC50 [4]: 0.89 nM
EC50 (B7-H4-Ig fusion protein [6]): 2.13 µg/mL and 14.2 nM

B7: humanized 6H3 variant 7 (antibody, V domains shown)
VH: EVQLVQSGAEMKKPGASVKVSCKASGYTFTDYYMNWVRQAPGQSLEWIGVINPYNGDTTYNQKFQGRVTVTVDKSATTAYMELSSLRSEDTAVYYCARYPESTYWGQGTLVTVSS
VL: DVVMTQSPLSLPVTLGQPASISCRSSQSLVHINGNTYLHWYLQRPGQSPKVLIYKVSNRFSGVPDRFSGSGSGTDFTLKISRVEAEDVGVYFCSQSTHVPLTFGGGTKVEIK
notes: also called V7; 6H3 V7
EC50 [1]: 0.11 nM
EC50 (B7-H4-Ig fusion protein [2]): 2.63 µg/mL and 17.5 nM
Bmax [5]: 6080
Bmax(MFI) [3]: 513 MFI
Kd [3]: 6.5 nM
EC50 [4]: 1.07 nM

B8: humanized 6H3 variant 6 (antibody, V domains shown)
VH: EVQLVQSGAEMKKPGASVKVSCKASGYTFTDYYMNWVRQAPGQSLEWMGVINPYNGDTTYNQKFQGRVTVAVDKSATTAYMELSSLRSEDTAVYYCARYPESTYWGQGTLVTVSS
VL: DVVMTQSPLSLPVTLGQPASISCRSSQSLVHINGNTYLHWYLQRPGQSPKVLIYKVSNRFSGVPDRFSGSGSGTDFTLKISRVEAEDVGVYFCSQSTHVPLTFGGGTKVEIK
notes: also called V6; Variant 6 (antibody)
EC50 [1]: 0.13 nM
EC50 (B7-H4-Ig fusion protein [2]): 2.53 µg/mL and 16.9 nM
Bmax [5]: 6420
Bmax(MFI) [3]: 526 MFI
Kd [3]: 5 nM
EC50 [4]: 1.64 nM

B9: humanized 6H3 variant 3 (antibody, V domains shown)
VH: EVQLVQSGAEMKKPGASVKVSCKASGYTFTDYYMNWVRQAPGQSLEWMGVINPYNGDTTYNQKFQGRVTVAVDKSATTAYMELSSLRSEDTAVYYCARYPESTYWGQGTLVTVSS
VL: DVVMTQSPLSLPVTLGQPASISCRSSQSLVHINGNTYLHWYQQRPGQSPRVLIYKVSNRFSGVPDRFSGSGSGTDFTLKISRVEAEDVGVYFCSQSTHVPLTFGGGTKVEIK
notes: also called V3; H2B L1B
EC50 [1]: 0.1 nM
EC50 (B7-H4-Ig fusion protein [2]): 3.09 µg/mL and 20.6 nM
Bmax(MFI) [3]: 583 MFI
Kd [3]: 6 nM
EC50 [4]: 1.19 nM

B10: humanized 6H3 variant 11 (antibody, V domains shown)
VH: EVQLVQSGAEMKKPGASVKVSCKASGYTFTDYYMNWVRQAPGQSLEWIGVINPYNGDTTYNQKFQGRVTVTVDKSATTAYMELSSLRSEDTAVYYCARYPESTYWGQGTLVTVSS
VL: DIVMTQTPLSLPVTLGQPASISCRSSQSLVHINGNTYLHWYQQRPGQSPRVLIYKVSNRFSGVPDRFSGSGSGTDFTLKISRVEAEDVGVYFCSQSTHVPLTFGQGTKVEIK
notes: also called V11; H2C L2B
EC50 [1]: 0.11 nM
Bmax(MFI) [3]: 648 MFI
Kd [3]: 6.9 nM
EC50 [4]: 0.97 nM
EC50 (B7-H4-Ig fusion protein [6]): 2.2 µg/mL and 14.7 nM
